Assay results: US20230250154A1 (CYTONICS, published 2023)
Blank lines part the entries; values can stand above or below the binder they belong to.

Key:
Experiment in all cases: cell-based or functional assay
MMP13 = MMP13 (human, UniProt P45452 104-471, limits assumed)
ADAMTS5 = target: T1, ADAMTS5 (human, UniProt Q9UNA0 262-622, limits assumed)
T1 sequence (looked up): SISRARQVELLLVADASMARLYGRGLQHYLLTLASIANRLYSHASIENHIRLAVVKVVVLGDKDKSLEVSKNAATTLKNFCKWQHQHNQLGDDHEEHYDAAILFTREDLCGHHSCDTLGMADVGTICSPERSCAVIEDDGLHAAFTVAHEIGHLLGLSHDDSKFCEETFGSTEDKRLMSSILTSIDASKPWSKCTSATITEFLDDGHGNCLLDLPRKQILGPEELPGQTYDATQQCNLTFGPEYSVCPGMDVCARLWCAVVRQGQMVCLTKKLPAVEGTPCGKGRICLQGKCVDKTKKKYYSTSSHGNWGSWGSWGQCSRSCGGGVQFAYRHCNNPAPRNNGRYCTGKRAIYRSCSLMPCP

ADAMTS4 = target: T2, ADAMTS4 (human, UniProt O75173 213-685, limits assumed)
T2 sequence (looked up): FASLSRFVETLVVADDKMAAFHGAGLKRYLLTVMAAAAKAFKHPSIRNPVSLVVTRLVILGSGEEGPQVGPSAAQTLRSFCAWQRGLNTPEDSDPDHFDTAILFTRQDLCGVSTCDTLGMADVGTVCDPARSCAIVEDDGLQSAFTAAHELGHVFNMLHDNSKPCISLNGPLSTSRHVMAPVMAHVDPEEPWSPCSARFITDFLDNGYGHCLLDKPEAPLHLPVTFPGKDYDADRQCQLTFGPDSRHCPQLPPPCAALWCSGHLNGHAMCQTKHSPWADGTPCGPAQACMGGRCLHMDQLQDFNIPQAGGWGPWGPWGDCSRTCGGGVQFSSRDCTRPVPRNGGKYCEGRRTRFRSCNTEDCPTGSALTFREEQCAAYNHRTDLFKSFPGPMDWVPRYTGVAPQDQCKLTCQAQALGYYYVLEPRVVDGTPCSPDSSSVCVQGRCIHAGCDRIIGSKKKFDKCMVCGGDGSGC

- Protease Inhibition (% of WT) (MMP13): 116 % of WT
- Protease Inhibition (% of WT) (ADAMTS5): 92 % of WT
- Protease Inhibition (% of WT) (ADAMTS4): 107 % of WT
B1: Variant A2M, bait region SEQ ID NO 116 (other)
chain: SVSGKPQYMVLVPSLLHTETTEKGCVLLSYLNETVTVSASLESVRGNRSLFTDLEAENDVLHCVAFAVPKSSSNEEVMFLTVQVKGPTQEFKKRTTVMVKNEDSLVFVQTDKSIYKPGQTVKFRVVSMDENFHPLNELIPLVYIQDPKGNRIAQWQSFQLEGGLKQFSFPLSSEPFQGSYKVVVQKKSGGRTEHPFTVEEFVLPKFEVQVTVPKIITILEEEMNVSVCGLYTYGKPVPGHVTVSICRKYSDASDCHGEDSQAFCEKFSGQLNSHGCFYQQVKTKVFQLKRKEYEMKLHTEAQIQEEGTVVELTGRQSSEITRTITKLSFVKVDSHFRQGIPFFGQVRLVDGKGVPIPNKVIFIRGNEANYYSNATTDEHGLVQFSINTTNVMGTSLTVRVNYKDRSPCYGYQWVSEEHEEAHHTAYLVFSPSKSFVHLEPMSHELPCGHTQTVQAHYILNGGTLLGLKKLSFYYLIMAKGGIVRTGTHGLLVKQEDMKGHFSISIPVKSDIAPVARLLIYAVLPTGDVIGDSAKYDVENCLANKVDLSFSPSQSLPASHAHLRVTAAPQSVCALRAVDQSVLLMKPDAELSASSVYNLLPEKDLTGFPGPLNDQDDEDCINRHNVYINGITYTPVSSTNEKDMYSFLEDMGLKAFTNSKIRKPKMCPQLEELEGRGSKEEEGLGSIPENFFGVFYESDVMGRGHARLVHVEEPHTKLRKYFPETWIWDLVVVNSAGVAEVGVTVPDTITEWKAGAFCLSEDAGLGISSTASLRAFQPFFVELTMPYSVIRGEAFTLKATVLNYLPKCIRVSVQLEASPAFLAVPVEKEQAPHCICANGRQTVSWAVTPKSLGNVNFTVSAEALESQELCGTEVPSVPEHGRKDTVIKPLLVEPEGLEKETTFNSLLCPSGGEVSEELSLKLPPNVVEESARASVSVLGDILGSAMQNTQNLLQMPYGCGEQNMVLFAPNIYVLDYLNETQQLTPEIKSKAIGYLNTGYQRQLNYKHYDGSYSTFGERYGRNQGNTWLTAFVLKTFAQARAYIFIDEAHITQALIWLSQRQKDNGCFRSSGSLLNNAIKGGVEDEVTLSAYITIALLEIPLTVTHPVVRNALFCLESAWKTAQEGDHGSHVYTKALLAYAFALAGNQDKRKEVLKSLNEEAVKKDNSVHWERPQKPKAPVGHFYEPQAPSAEVEMTSYVLLAYLTAQPAPTSEDLTSATNIVKWITKQQNAQGGFSSTQDTVVALHALSKYGAATFTRTGKAAQVTIQSSGTFSSKFQVDNNNRLLLQQVSLPELPGEYSMKVTGEGCVYLQTSLKYNILPEKEEFPFALGVQTLPQTCDEPKAHTSFQISLSVSYTGSRSASNMAIVDVKMVSGFIPLKPTVKMLERSNHVSRTEVSSNHVLIYLDKVSNQTLSLFFTVLQDVPVRDLKPAIVKVYDYYETDEFAIAEYNAPCSKDLGNADYKDDDDKGASHHHHHH

- Protease Inhibition (% of WT) (MMP13): 78 % of WT
- Protease Inhibition (% of WT) (ADAMTS5): 163 % of WT
- Protease Inhibition (% of WT) (ADAMTS4): 108 % of WT
B2: Variant A2M, bait region SEQ ID NO 115 (other)
chain: SVSGKPQYMVLVPSLLHTETTEKGCVLLSYLNETVTVSASLESVRGNRSLFTDLEAENDVLHCVAFAVPKSSSNEEVMFLTVQVKGPTQEFKKRTTVMVKNEDSLVFVQTDKSIYKPGQTVKFRVVSMDENFHPLNELIPLVYIQDPKGNRIAQWQSFQLEGGLKQFSFPLSSEPFQGSYKVVVQKKSGGRTEHPFTVEEFVLPKFEVQVTVPKIITILEEEMNVSVCGLYTYGKPVPGHVTVSICRKYSDASDCHGEDSQAFCEKFSGQLNSHGCFYQQVKTKVFQLKRKEYEMKLHTEAQIQEEGTVVELTGRQSSEITRTITKLSFVKVDSHFRQGIPFFGQVRLVDGKGVPIPNKVIFIRGNEANYYSNATTDEHGLVQFSINTTNVMGTSLTVRVNYKDRSPCYGYQWVSEEHEEAHHTAYLVFSPSKSFVHLEPMSHELPCGHTQTVQAHYILNGGTLLGLKKLSFYYLIMAKGGIVRTGTHGLLVKQEDMKGHFSISIPVKSDIAPVARLLIYAVLPTGDVIGDSAKYDVENCLANKVDLSFSPSQSLPASHAHLRVTAAPQSVCALRAVDQSVLLMKPDAELSASSVYNLLPEKDLTGFPGPLNDQDDEDCINRHNVYINGITYTPVSSTNEKDMYSFLEDMGLKAFTNSKIRKPKMCPQLEEEEGLGSKEEEGLGSPKEEEGLGSKEEEGLGSPKEEEGLGSKLRKYFPETWIWDLVVVNSAGVAEVGVTVPDTITEWKAGAFCLSEDAGLGISSTASLRAFQPFFVELTMPYSVIRGEAFTLKATVLNYLPKCIRVSVQLEASPAFLAVPVEKEQAPHCICANGRQTVSWAVTPKSLGNVNFTVSAEALESQELCGTEVPSVPEHGRKDTVIKPLLVEPEGLEKETTFNSLLCPSGGEVSEELSLKLPPNVVEESARASVSVLGDILGSAMQNTQNLLQMPYGCGEQNMVLFAPNIYVLDYLNETQQLTPEIKSKAIGYLNTGYQRQLNYKHYDGSYSTFGERYGRNQGNTWLTAFVLKTFAQARAYIFIDEAHITQALIWLSQRQKDNGCFRSSGSLLNNAIKGGVEDEVTLSAYITIALLEIPLTVTHPVVRNALFCLESAWKTAQEGDHGSHVYTKALLAYAFALAGNQDKRKEVLKSLNEEAVKKDNSVHWERPQKPKAPVGHFYEPQAPSAEVEMTSYVLLAYLTAQPAPTSEDLTSATNIVKWITKQQNAQGGFSSTQDTVVALHALSKYGAATFTRTGKAAQVTIQSSGTFSSKFQVDNNNRLLLQQVSLPELPGEYSMKVTGEGCVYLQTSLKYNILPEKEEFPFALGVQTLPQTCDEPKAHTSFQISLSVSYTGSRSASNMAIVDVKMVSGFIPLKPTVKMLERSNHVSRTEVSSNHVLIYLDKVSNQTLSLFFTVLQDVPVRDLKPAIVKVYDYYETDEFAIAEYNAPCSKDLGNADYKDDDDKGASHHHHHH

- Protease Inhibition (% of WT) (MMP13): 75 % of WT
- Protease Inhibition (% of WT) (ADAMTS5): 237 % of WT
- Protease Inhibition (% of WT) (ADAMTS4): 118 % of WT
B3: Variant A2M, bait region SEQ ID NO 114 (other)
chain: SVSGKPQYMVLVPSLLHTETTEKGCVLLSYLNETVTVSASLESVRGNRSLFTDLEAENDVLHCVAFAVPKSSSNEEVMFLTVQVKGPTQEFKKRTTVMVKNEDSLVFVQTDKSIYKPGQTVKFRVVSMDENFHPLNELIPLVYIQDPKGNRIAQWQSFQLEGGLKQFSFPLSSEPFQGSYKVVVQKKSGGRTEHPFTVEEFVLPKFEVQVTVPKIITILEEEMNVSVCGLYTYGKPVPGHVTVSICRKYSDASDCHGEDSQAFCEKFSGQLNSHGCFYQQVKTKVFQLKRKEYEMKLHTEAQIQEEGTVVELTGRQSSEITRTITKLSFVKVDSHFRQGIPFFGQVRLVDGKGVPIPNKVIFIRGNEANYYSNATTDEHGLVQFSINTTNVMGTSLTVRVNYKDRSPCYGYQWVSEEHEEAHHTAYLVFSPSKSFVHLEPMSHELPCGHTQTVQAHYILNGGTLLGLKKLSFYYLIMAKGGIVRTGTHGLLVKQEDMKGHFSISIPVKSDIAPVARLLIYAVLPTGDVIGDSAKYDVENCLANKVDLSFSPSQSLPASHAHLRVTAAPQSVCALRAVDQSVLLMKPDAELSASSVYNLLPEKDLTGFPGPLNDQDDEDCINRHNVYINGITYTPVSSTNEKDMYSFLEDMGLKAFTNSKIRKPKMCPQLEAQEAGEGKEEEGLGSPVSQELGQRSELEGRGSPTEGEARGSKLRKYFPETWIWDLVVVNSAGVAEVGVTVPDTITEWKAGAFCLSEDAGLGISSTASLRAFQPFFVELTMPYSVIRGEAFTLKATVLNYLPKCIRVSVQLEASPAFLAVPVEKEQAPHCICANGRQTVSWAVTPKSLGNVNFTVSAEALESQELCGTEVPSVPEHGRKDTVIKPLLVEPEGLEKETTFNSLLCPSGGEVSEELSLKLPPNVVEESARASVSVLGDILGSAMQNTQNLLQMPYGCGEQNMVLFAPNIYVLDYLNETQQLTPEIKSKAIGYLNTGYQRQLNYKHYDGSYSTFGERYGRNQGNTWLTAFVLKTFAQARAYIFIDEAHITQALIWLSQRQKDNGCFRSSGSLLNNAIKGGVEDEVTLSAYITIALLEIPLTVTHPVVRNALFCLESAWKTAQEGDHGSHVYTKALLAYAFALAGNQDKRKEVLKSLNEEAVKKDNSVHWERPQKPKAPVGHFYEPQAPSAEVEMTSYVLLAYLTAQPAPTSEDLTSATNIVKWITKQQNAQGGFSSTQDTVVALHALSKYGAATFTRTGKAAQVTIQSSGTFSSKFQVDNNNRLLLQQVSLPELPGEYSMKVTGEGCVYLQTSLKYNILPEKEEFPFALGVQTLPQTCDEPKAHTSFQISLSVSYTGSRSASNMAIVDVKMVSGFIPLKPTVKMLERSNHVSRTEVSSNHVLIYLDKVSNQTLSLFFTVLQDVPVRDLKPAIVKVYDYYETDEFAIAEYNAPCSKDLGNADYKDDDDKGASHHHHHH
